Assay results reported in the supplement of paper PMC10567573.

B1: TNNI2 (parent)
chain: DWRKNIEEKSGMEGRKKMFESES

Variants of: B1
Test: protein stability index of a GFP-peptide fusion (GPS, HEK-293T) (PSI 1-6); higher = more stable
Details: c terminus: native
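Also: lentivirally expressed fusions sorted by FACS into six bins by GFP to DsRed ratio, PSI derived from sequencing read proportions per bin multiplied by bin number.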

Compared with DWRKNIEEKSSMEGRKKMFESES [G11S], DWRKNIEEKSQMEGRKKMFESES [G11Q] is lower in protein stability index: 2.6 for the first, 1.18 for the second.

Compared with DWRKNIEEKSRMEGRKKMFESES [G11R], DWRKNIEEKSHMEGRKKMFESES [G11H] is lower in protein stability index: 2.35 for the first, 1.76 for the second.

Compared with DWRKNIEEKSKMEGRKKMFESES [G11K], DWRKNIEEKSCMEGRKKMFESES [G11C] is lower in protein stability index: 3.5 for the first, 1.52 for the second.

Compared with DWRKNIEEKSEMEGRKKMFESES [G11E], DWRKNIEEKSLMEGRKKMFESES [G11L] is lower in protein stability index: 3.21 for the first, 2.77 for the second.

First: DWRKNIEEKSAMEGRKKMFESES [G11A]
Second: DWRKNIEEKSMMEGRKKMFESES [G11M]
The protein stability index of the first is higher: 2.57 for the first, 1.9 for the second.

Going from DWRKNIEEKSNMEGRKKMFESES [G11N] to DWRKNIEEKSDMEGRKKMFESES [G11D], the protein stability index rises from 1.94 to 1.99.

Going from DWRKNIEEKSTMEGRKKMFESES [G11T] to DWRKNIEEKSYMEGRKKMFESES [G11Y], the protein stability index falls from 1.58 to 1.45.

Going from DWRKNIEEKSVMEGRKKMFESES [G11V] to DWRKMIEEKSGMEGRKKMFESES [N5M], the protein stability index rises from 2 to 2.37.

First: DWRKCIEEKSGMEGRKKMFESES [N5C]
Second: DWRKYIEEKSGMEGRKKMFESES [N5Y]
The protein stability index of the first is higher: 2.7 for the first, 1.62 for the second.

Compared with DWRKDIEEKSGMEGRKKMFESES [N5D], DWRKIIEEKSGMEGRKKMFESES [N5I] is higher in protein stability index: 1.94 for the first, 2.32 for the second.

Going from DWRKTIEEKSGMEGRKKMFESES [N5T] to DWRKWIEEKSGMEGRKKMFESES [N5W], the protein stability index falls from 3.41 to 1.64.

Compared with DWRKFIEEKSGMEGRKKMFESES [N5F], DWRKSIEEKSGMEGRKKMFESES [N5S] is lower in protein stability index: 2.43 for the first, 2.31 for the second.

Compared with DWRKHIEEKSGMEGRKKMFESES [N5H], DWRKRIEEKSGMEGRKKMFESES [N5R] is higher in protein stability index: 2.07 for the first, 2.95 for the second.

Compared with DWRKAIEEKSGMEGRKKMFESES [N5A], DWRKVIEEKSGMEGRKKMFESES [N5V] is lower in protein stability index: 3.79 for the first, 2.04 for the second.

Compared with DWRKQIEEKSGMEGRKKMFESES [N5Q], DWRKLIEEKSGMEGRKKMFESES [N5L] is lower in protein stability index: 2.72 for the first, 2.57 for the second.

Going from DWRKEIEEKSGMEGRKKMFESES [N5E] to DWRKGIEEKSGMEGRKKMFESES [N5G], the protein stability index rises from 2.28 to 2.5.

Going from DWRKPIEEKSGMEGRKKMFESES [N5P] to DHRKNIEEKSGMEGRKKMFESES [W2H], the protein stability index falls from 3.97 to 2.95.

First: DFRKNIEEKSGMEGRKKMFESES [W2F]
Second: DPRKNIEEKSGMEGRKKMFESES [W2P]
The protein stability index of the first is lower: 2.55 for the first, 3.59 for the second.

First: DSRKNIEEKSGMEGRKKMFESES [W2S]
Second: DKRKNIEEKSGMEGRKKMFESES [W2K]
The protein stability index of the first is higher: 2.69 for the first, 1.95 for the second.

First: DVRKNIEEKSGMEGRKKMFESES [W2V]
Second: DNRKNIEEKSGMEGRKKMFESES [W2N]
The protein stability index of the first is higher: 2.96 for the first, 2.25 for the second.

Going from DYRKNIEEKSGMEGRKKMFESES [W2Y] to DCRKNIEEKSGMEGRKKMFESES [W2C], the protein stability index falls from 2.93 to 2.88.

Compared with DLRKNIEEKSGMEGRKKMFESES [W2L], DTRKNIEEKSGMEGRKKMFESES [W2T] is lower in protein stability index: 2.85 for the first, 2.32 for the second.

Compared with DQRKNIEEKSGMEGRKKMFESES [W2Q], DGRKNIEEKSGMEGRKKMFESES [W2G] is lower in protein stability index: 3.67 for the first, 2.51 for the second.

Compared with DIRKNIEEKSGMEGRKKMFESES [W2I], DERKNIEEKSGMEGRKKMFESES [W2E] is higher in protein stability index: 2.53 for the first, 3.25 for the second.

First: DDRKNIEEKSGMEGRKKMFESES [W2D]
Second: DMRKNIEEKSGMEGRKKMFESES [W2M]
The protein stability index of the first is higher: 3.12 for the first, 3.08 for the second.

First: DWRKNIEEKSGNEGRKKMFESES [M12N]
Second: DWRKNIEEKSGLEGRKKMFESES [M12L]
The protein stability index of the first is higher: 2.89 for the first, 2.13 for the second.

Going from DWRKNIEEKSGFEGRKKMFESES [M12F] to DWRKNIEEKSGHEGRKKMFESES [M12H], the protein stability index rises from 2.38 to 2.42.

First: DWRKNIEEKSGEEGRKKMFESES [M12E]
Second: DWRKNIEEKSGDEGRKKMFESES [M12D]
The protein stability index of the first is lower: 2.47 for the first, 2.52 for the second.

Compared with DWRKNIEEKSGPEGRKKMFESES [M12P], DWRKNIEEKSGCEGRKKMFESES [M12C] is higher in protein stability index: 1.96 for the first, 2.71 for the second.

Compared with DWRKNIEEKSGIEGRKKMFESES [M12I], DWRKNIEEKSGKEGRKKMFESES [M12K] is lower in protein stability index: 3.01 for the first, 2.72 for the second.

First: DWRKNINEKSGMEGRKKMFESES [E7N]
Second: DWRKNIAEKSGMEGRKKMFESES [E7A]
The protein stability index of the first is higher: 2.79 for the first, 2.16 for the second.

Compared with DWRKNIVEKSGMEGRKKMFESES [E7V], DWRKNITEKSGMEGRKKMFESES [E7T] is higher in protein stability index: 2.26 for the first, 2.82 for the second.

Going from DWRKNIKEKSGMEGRKKMFESES [E7K] to DWRKNIPEKSGMEGRKKMFESES [E7P], the protein stability index rises from 2.62 to 2.85.

Going from DWRKNIQEKSGMEGRKKMFESES [E7Q] to DWRKNIWEKSGMEGRKKMFESES [E7W], the protein stability index falls from 2.56 to 2.01.

Compared with DWRKNIDEKSGMEGRKKMFESES [E7D], DWRKNIMEKSGMEGRKKMFESES [E7M] is lower in protein stability index: 3 for the first, 2.25 for the second.

Going from DWRKNIYEKSGMEGRKKMFESES [E7Y] to DWRKNIFEKSGMEGRKKMFESES [E7F], the protein stability index falls from 2.12 to 1.77.

Compared with DWRKNISEKSGMEGRKKMFESES [E7S], DWRKNIREKSGMEGRKKMFESES [E7R] is higher in protein stability index: 1.76 for the first, 2.8 for the second.

First: DWRKNIHEKSGMEGRKKMFESES [E7H]
Second: DWRKNILEKSGMEGRKKMFESES [E7L]
The protein stability index of the first is lower: 1.84 for the first, 2.17 for the second.

Going from DWRKNICEKSGMEGRKKMFESES [E7C] to DWRKNIGEKSGMEGRKKMFESES [E7G], the protein stability index falls from 2.01 to 1.83.

Going from DWRKNIIEKSGMEGRKKMFESES [E7I] to DWRLNIEEKSGMEGRKKMFESES [K4L], the protein stability index rises from 1.75 to 2.82.

Going from DWRNNIEEKSGMEGRKKMFESES [K4N] to DWRYNIEEKSGMEGRKKMFESES [K4Y], the protein stability index falls from 3.23 to 2.56.

First: DWRPNIEEKSGMEGRKKMFESES [K4P]
Second: DWRANIEEKSGMEGRKKMFESES [K4A]
The protein stability index of the first is lower: 2.61 for the first, 3.61 for the second.

Going from DWRVNIEEKSGMEGRKKMFESES [K4V] to DWRTNIEEKSGMEGRKKMFESES [K4T], the protein stability index falls from 3.15 to 2.98.

Compared with DWRINIEEKSGMEGRKKMFESES [K4I], DWRGNIEEKSGMEGRKKMFESES [K4G] is higher in protein stability index: 2.13 for the first, 3.03 for the second.

Compared with DWRDNIEEKSGMEGRKKMFESES [K4D], DWRSNIEEKSGMEGRKKMFESES [K4S] is lower in protein stability index: 3.23 for the first, 3.03 for the second.

First: DWRFNIEEKSGMEGRKKMFESES [K4F]
Second: DWRWNIEEKSGMEGRKKMFESES [K4W]
The protein stability index of the first is higher: 2.37 for the first, 2.13 for the second.

First: DWRQNIEEKSGMEGRKKMFESES [K4Q]
Second: DWRHNIEEKSGMEGRKKMFESES [K4H]
The protein stability index of the first is higher: 3.21 for the first, 2.62 for the second.

Going from DWRCNIEEKSGMEGRKKMFESES [K4C] to DWRMNIEEKSGMEGRKKMFESES [K4M], the protein stability index rises from 2.32 to 3.39.

Variant DWRENIEEKSGMEGRKKMFESES [K4E] has a protein stability index of 2.59.
